Experimental findings from publication PMC4588518 are described below.

In this test the target is LegK4^1–445 (Legionella pneumophila LegK4, residues 1 to 445) (Legionella pneumophila). The test is described as follows: SEC-SAXS.

Take “LegK4^1–445 (Legionella pneumophila LegK4, residues 1 to 445) (domain or fragment)”: the stoichiometry N was found to be 2.
